Patent US20250154281A1 (Amgen, published 2025)

Assays:
[1] = molecular target: T1, human STEAP1 (Six Trans-membrane Epithelial Antigen of the Prostate 1) (human, UniProt Q9UHE8 1-339); test: cell-based or functional assay
[2] = molecular target: T1, human STEAP1 (Six Trans-membrane …); test: cell-based or functional assay; remark: listed apart in the source
[3] = molecular target: T1, human STEAP1 (Six Trans-membrane …); test: flow cytometry on C4-2B luc cells, MFI (repeat experiment)
Method: The experiment was repeated with Ab-A in various formats (Ab-A (traditional, monospecific antibody, not humanized), Ab-A1 XmAb format, Ab-A1 Xmab²⁺¹ format, and Ab-A2(N67Q) Xmab²⁺¹ format (with N67Q modification)) and Ab-B XmAb format. C4-2B-Luc cells were incubated with increasing concentrations of anti-STEAP1 XmAb or XmAb²⁺¹ molecules up to […], for one hour at 4° C. […] Results are shown in FIGS. 12A-12C and FIG. 13 and Table 4 below.

[4] = molecular target: T1, human STEAP1 (Six Trans-membrane …); test: flow cytometry on C4-2B-Luc cells
Method: (§1) C4-2B-Luc cells were incubated with increasing concentrations of Ab-A1 XmAb²⁺¹, Ab-A1 Xmab, Ab-B1 Xmab, Ab-Mx1, Ab-Mx2 and Ab-Mx3 up to […], for 1 hour at 4° C. Cell-bound antibodies were detected by flow cytometry after incubation with an APC-conjugated anti-human IgG secondary antibody and mean fluorescence intensity (MFI) of the APC channel at increasing concentrations of respective antibodies tested.

[5] = molecular target: T1, human STEAP1 (Six Trans-membrane …); test: flow cytometry on C4-2B-Luc cells, APC anti-human IgG, MFI
Method: as §1

[6] = molecular target: T2, recombinant human CD3ε-Fc (human, UniProt P07766 23-126); test: SPR, CD3ε-Fc immobilized on CM5 chip; ^a data generated using BIAcore
T2 construct: also called human CD3E-Fc; not shown: Fc part
T2 sequence (P07766 23-126 limits assumed): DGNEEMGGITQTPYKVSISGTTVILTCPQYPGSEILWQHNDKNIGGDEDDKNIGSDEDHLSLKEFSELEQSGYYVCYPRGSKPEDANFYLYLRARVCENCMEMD
Method: (§2) Recombinant human CD3E-Fc and cynomolgus CD3ε-Fc were immobilized on a CM5 chip surface using standard amine coupling procedure at ˜60 RU. Ab-A2(N67Q) XmAb²⁺¹ was injected concentrations of 100, 33.3, 11.1 and 3.7 nM. The association and dissociation rates of Ab-A2(N67Q) XmAb²⁺¹ interaction to the ligands were recorded for 120 sec and 300 sec, respectively, as set forth below in Table 8. The equilibrium dissociation constant (KD) values were derived as a ratio of the dissociation rate constant and the association rate constant (koff/kₒₙ).

[7] = molecular target: T3, recombinant cynomolgus CD3ε-Fc (cynomolgus, UniProt Q95LI5 22-117, limits assumed); test: as above
T3 construct: not shown: Fc part
T3 sequence (looked up): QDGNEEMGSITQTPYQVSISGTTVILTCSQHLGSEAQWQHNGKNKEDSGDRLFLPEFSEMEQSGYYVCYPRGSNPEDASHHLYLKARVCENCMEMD
Method: as §2

[8] = molecular target: T1, human STEAP1 (Six Trans-membrane …); test: cell-based or functional assay; remark: listed apart in the source
[9] = molecular target: T2, recombinant human CD3ε-Fc; test: ^b data generated using Octet
[10] = molecular target: T3, recombinant cynomolgus CD3ε-Fc; test: ^b data generated using Octet
[11] = molecular target: T1, human STEAP1 (Six Trans-membrane …); test: cell-based or functional assay; remark: listed apart in the source
[12] = molecular target: T1, human STEAP1 (Six Trans-membrane …); test: cell-based or functional assay; remark: listed apart in the source

T1 sequence (Q9UHE8 whole entry): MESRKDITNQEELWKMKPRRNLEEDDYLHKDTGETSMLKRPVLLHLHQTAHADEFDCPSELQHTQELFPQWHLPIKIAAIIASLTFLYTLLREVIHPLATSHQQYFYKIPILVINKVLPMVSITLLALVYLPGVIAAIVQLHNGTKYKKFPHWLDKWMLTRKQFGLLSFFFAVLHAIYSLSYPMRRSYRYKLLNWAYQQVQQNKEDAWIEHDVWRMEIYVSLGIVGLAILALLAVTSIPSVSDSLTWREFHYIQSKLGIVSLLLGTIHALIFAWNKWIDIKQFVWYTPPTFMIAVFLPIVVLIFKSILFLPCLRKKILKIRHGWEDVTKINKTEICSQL

B1: Ab-A1 XmAb^2+1 (humanized anti-STEAP1/anti-CD3 heterodimeric antibody) (bispecific antibody)
heavy 1: QVQLVQSGAEVKKPGASVKVSCKASGYTFSTYWIEWVRQAPGQRLEWMGEILPGSGNTDFNEKFQGRVTFTADTSSDTAYMELSSLRSEDTAVYYCTRWGYYGTRGYFNVWGQGTLVTVSSASTKGPSVFPLAPSSKSTSGGTAALGCLVKDYFPEPVTVSWNSGALTSGVHTFPAVLQSSGLYSLSSVVTVPSSSLGTQTYICNVNHKPSNTKVDKKVEPKSCGGGGSGGGGSEVQLVESGGGLVQPGGSLRLSCAASGFTFSTYAMNWVRQAPGKGLEWVGRIRSKYNNYATYYADSVKGRFTISRDDSKNTLYLQMNSLRAEDTAVYYCVRHGNFGDSYVSWFAYWGQGTLVTVSSGKPGSGKPGSGKPGSGKPGSQAVVTQEPSLTVSPGGTVTLTCGSSTGAVTTSNYANWVQQKPGKSPRGLIGGTNKRAPGVPARFSGSLLGGKAALTISGAQPEDEADYYCALWYSNHWVFGGGTKLTVLGGGGSGGGGSKTHTCPPCPAPPVAGPSVFLFPPKPKDTLMISRTPEVTCVVVDVKHEDPEVKFNWYVDGVEVHNAKTKPREEQYNSTYRVVSVLTVLHQDWLNGKEYKCKVSNKALPAPIEKTISKAKGQPREPQVYTLPPSREQMTKNQVKLTCLVKGFYPSDIAVEWESNGQPENNYKTTPPVLDSDGSFFLYSKLTVDKSRWQQGNVFSCSVMHEALHNHYTQKSLSLSPGK
heavy 2: QVQLVQSGAEVKKPGASVKVSCKASGYTFSTYWIEWVRQAPGQRLEWMGEILPGSGNTDFNEKFQGRVTFTADTSSDTAYMELSSLRSEDTAVYYCTRWGYYGTRGYFNVWGQGTLVTVSSASTKGPSVFPLAPSSKSTSGGTAALGCLVKDYFPEPVTVSWNSGALTSGVHTFPAVLQSSGLYSLSSVVTVPSSSLGTQTYICNVNHKPSDTKVDKKVEPKSCDKTHTCPPCPAPPVAGPSVFLFPPKPKDTLMISRTPEVTCVVVDVKHEDPEVKFNWYVDGVEVHNAKTKPREEEYNSTYRVVSVLTVLHQDWLNGKEYKCKVSNKALPAPIEKTISKAKGQPREPQVYTLPPSREEMTKNQVSLTCDVSGFYPSDIAVEWESDGQPENNYKTTPPVLDSDGSFFLYSKLTVDKSRWEQGDVFSCSVMHEALHNHYTQKSLSLSPGK
light: EIVLTQSPATLSLSPGERATLSCRASSSVSYMHWFQQKPGQAPRLLIYSTSNLASGIPARFSGSGSGTDYTLTISSLEPEDFAVYYCQQRRSFPYTFGQGTKLEIKRTVAAPSVFIFPPSDEQLKSGTASVVCLLNNFYPREAKVQWKVDNALQSGNSQESVTEQDSKDSTYSLSSTLTLSKADYEKHKVYACEVTHQGLSSPVTKSFNRGEC
notes: XmAb^2+1 format: first monomer VH-CH1-(anti-CD3 scFv)-Fc, second monomer VH-CH1-Fc, common light chain; two STEAP1 Fabs and one CD3 scFv; monomers 19 or 20 / 18 or 199 / light 17; scFv 44; also called XmAb^2+1 Ab-A1; copies: 1 + 1 + 2
TDCC EC50, C4-2B luc cells [1]: 6.3 pM
TDCC EC50 [2]: 6 pM
EC50 [3]: 2200 pM
fold lower binding EC50 than Ab-A1 Xmab [4]: 65 fold
EC50 [5]: 2200 pM

B2: Ab-A2(N67Q) XmAb^2+1 (variant of Ab-A1 XmAb^2+1 having a N67Q modification) (bispecific antibody)
heavy 1: QVQLVQSGAEVKKPGASVKVSCKASGYTFSTYWIEWVRQAPGQRLEWMGEILPGSGQTDFNEKFQGRVTFTADTSSDTAYMELSSLRSEDTAVYYCTRWGYYGTRGYFNVWGQGTLVTVSSASTKGPSVFPLAPSSKSTSGGTAALGCLVKDYFPEPVTVSWNSGALTSGVHTFPAVLQSSGLYSLSSVVTVPSSSLGTQTYICNVNHKPSNTKVDKKVEPKSCGGGGSGGGGSEVQLVESGGGLVQPGGSLRLSCAASGFTFSTYAMNWVRQAPGKGLEWVGRIRSKYNNYATYYADSVKGRFTISRDDSKNTLYLQMNSLRAEDTAVYYCVRHGNFGDSYVSWFAYWGQGTLVTVSSGKPGSGKPGSGKPGSGKPGSQAVVTQEPSLTVSPGGTVTLTCGSSTGAVTTSNYANWVQQKPGKSPRGLIGGTNKRAPGVPARFSGSLLGGKAALTISGAQPEDEADYYCALWYSNHWVFGGGTKLTVLGGGGSGGGGSKTHTCPPCPAPPVAGPSVFLFPPKPKDTLMISRTPEVTCVVVDVKHEDPEVKFNWYVDGVEVHNAKTKPCEEQYGSTYRCVSVLTVLHQDWLNGKEYKCKVSNKALPAPIEKTISKAKGQPREPQVYTLPPSREQMTKNQVKLTCLVKGFYPSDIAVEWESNGQPENNYKTTPPVLDSDGSFFLYSKLTVDKSRWQQGNVFSCSVMHEALHNHYTQKSLSLSPGK
heavy 2: QVQLVQSGAEVKKPGASVKVSCKASGYTFSTYWIEWVRQAPGQRLEWMGEILPGSGQTDFNEKFQGRVTFTADTSSDTAYMELSSLRSEDTAVYYCTRWGYYGTRGYFNVWGQGTLVTVSSASTKGPSVFPLAPSSKSTSGGTAALGCLVKDYFPEPVTVSWNSGALTSGVHTFPAVLQSSGLYSLSSVVTVPSSSLGTQTYICNVNHKPSDTKVDKKVEPKSCDKTHTCPPCPAPPVAGPSVFLFPPKPKDTLMISRTPEVTCVVVDVKHEDPEVKFNWYVDGVEVHNAKTKPCEEEYGSTYRCVSVLTVLHQDWLNGKEYKCKVSNKALPAPIEKTISKAKGQPREPQVYTLPPSREEMTKNQVSLTCDVSGFYPSDIAVEWESDGQPENNYKTTPPVLDSDGSFFLYSKLTVDKSRWEQGDVFSCSVMHEALHNHYTQKSLSLSPGK
light: EIVLTQSPATLSLSPGERATLSCRASSSVSYMHWFQQKPGQAPRLLIYSTSNLASGIPARFSGSGSGTDYTLTISSLEPEDFAVYYCQQRRSFPYTFGQGTKLEIKRTVAAPSVFIFPPSDEQLKSGTASVVCLLNNFYPREAKVQWKVDNALQSGNSQESVTEQDSKDSTYSLSSTLTLSKADYEKHKVYACEVTHQGLSSPVTKSFNRGEC
notes: XmAb^2+1 format (two STEAP1 Fabs, one anti-CD3 scFv); monomers 19 or 20 / 18 or 199 / light 17; scFv 44; also called Ab-A2 XmAb^2+1; copies: 1 + 1 + 2
Kd [6]: 16300 pM
Kd [7]: 15100 pM
TDCC EC50, A673 cells [8]: 122 pM
TDCC EC50, EBC1 cells [8]: 162 pM
TDCC EC50, OE33 cells [8]: 145 pM
Kd [9]: 27600 pM
Kd [10]: 25800 pM
TDCC EC50, C4-2B luc cells [1]: 5.4 pM
TDCC EC50, 22RV-1 cells [11]: 257 pM
TDCC EC50, C4-2B cells [11]: 6.8 pM
TDCC EC50, HBSMC cells [11]: 1520 pM
TDCC EC50, HCT116 cells [11]: 336 pM
TDCC EC50, HUCCT1 cells [11]: > 10000 pM
TDCC EC50, IM-95 cells [11]: 345 pM
TDCC EC50, LOX-IMVI cells [11]: 36.6 pM
TDCC EC50, NCIH1869 cells [11]: > 10000 pM
TDCC EC50, PC3 cells [11]: > 10000 pM
TDCC EC50, SK-N-MC cells [11]: 10.4 pM
TDCC EC50, SNU5 cells [11]: 6.2 pM
TDCC EC50, TYKNU cells [11]: 1720 pM
TDCC EC50, VCaP cells [11]: 722 pM
EC50 [3]: 1200 pM
TDCC EC50, 293T cells stably transfected with human STEAP1 [12]: 0.1 pM
